Measurements: patent US20140017242A1, “ANTI-BRADYKININ B2 RECEPTOR (BKB2R) MONOCLONAL ANTIBODY” (Diamedica, Inc., priority 2010, published 2014)

Tests used:
Wistar rats = experiment: Acute effects on blood pressure in anesthetized Wistar rats; type: in vivo, rat; settings: single dose 0.5 mg/kg IV
Description: Male Wistar rats (Charles River Laboratories, Boston, Mass.) were 7.0 to 7.6 weeks old, weighed an average of 245 grams, and were maintained on Purina 5001 rat chow ad libitum. Following one week of laboratory acclimatization, treatments femoral catheter surgery and drug administration were conducted within a one-day period with measurements commencing the same day and continued during an ongoing three-week follow-up period. Treatment groups were (1) 3H3H3 (anti-BKB2R) antibody (n=8), (2) 3H3H9 (anti-BKB2R) antibody (n=8), (3) 1F2G7 (anti-BKB2R) antibody, (n=3), (4) 5F12G1 (anti-BKB2R) antibody (n=8).
Rats were anesthetized with ketamine (30 mg/kg, IM) and Inactin (50 mg/kg, IP). Cannulae were implanted in the femoral artery for blood pressure measurements and in the femoral vein for drug administration. Arterial line was filled with saline with 10 UI/ml of heparin to keep the line patent over the experiment and avoid frequent flushing of the arterial line. After 15-20 minutes of equilibration period, and once the blood pressure was stable, a baseline blood pressure was recorded for 15 minutes; then, drugs were administered and its effects on blood pressure assessed. For the antibodies a single dose (0.5 mg/kg) was administered and blood pressure recorded for three hours. All drugs were diluted in saline or PBS to achieve a total volume of 1 ml/kg. Drugs were slowly administered, on a 40-sec period on average. Animals were kept at 37° C. during the experiment. At the end of the experiments, animals were euthanized and no blood or tissues were collected.
Baseline blood pressure, length of blood pressure response to drug, maximum blood pressure change and Area Under the Curve (AUC) for the blood pressure response. Blood pressure at 1, 2 and 3 h after infusion for the antibodies.

Hep G2 = experiment: MTT Cell Proliferation Assay, Hep G2; type: cell-based, human; settings: 120 hours of exposure
Source text: (§1) This Example describes characterization of the cytotoxic activity of herein described anti-BKB2R monoclonal antibodies against a panel of cancer cell lines. BxPC-3 is a human adenocarcinoma cell line originally isolated from the pancreas (pancreatic cancer) (ATCC # CRL-1687; Tan et al., Cancer Invest. 4: 15-23, 1986. PubMed: 3754176). MV-4-11 is a human biphenotypic B myelomonocytic leukemia (mixed-lineage leukemia, MLL-AF4) cell line originally isolated from the peripheral blood (ATCC # CRL-959; Lange et al., Blood 70: 192-199, 1987. PubMed: 3496132). Hep G2 is a human hepatocellular carcinoma cell line isolated from the liver (liver cancer) (ATCC # HB-8065; Aden et al., Nature 282: 615-616, 1979. PubMed: 233137). RS4;11 is a human acute lymphoblastic leukemia (mixed-lineage leukemia, MLL-AF4) cell line isolated from the bone marrow (ATTC # CRL-1873) Stong et al., Blood 65: 21-31, 1985. PubMed: 3917311). HT-29 is a human colorectal adenocarcinoma (ATTC # HTB-38) cell line isolated from the colon (colon cancer). Fogh et al., J. Natl. Cancer Inst. 58: 209-214, 1977. PubMed: 833871). NUGC-4 is a human stomach carcinoma isolated from the stomach paragastiric lymph node (JCRB # JCRB0834; Akiyama et al., Jpn. J. Surg., 18: 438-446, 1988). […]
(§2) The anti-proliferative activity of test compounds against the indicated cell lines was evaluated in vitro using the ATCC's MTT Cell Proliferation Assay (Catalog No. 30-1010K). After the 120 hour incubation with drug (e.g., anti-BKB2R mAb or cisplatin), cell proliferation was measured by addition of MTT reagent to each well and incubation for an additional 4 hrs. […] Optical absorbance (570 nm) of the test wells was measured and then quantitated relative to control wells that received no drug. Results were expressed as percent inhibition versus compound concentration and graphed, as shown in FIGS. 19-25, for cell lines BxPC-3, MV-4;11, HepG2, RS-4;11, HT-29, NUGC-4, and PC-3, respectively.

RS-4;11 = experiment: MTT Cell Proliferation Assay, RS-4;11; type: cell-based, human; settings: 120 hours of exposure
Source text: as §1, §2

PC-3 = experiment: MTT Cell Proliferation Assay, PC-3; type: cell-based, human; settings: 120 hours of exposure
Source text: as §1, §2

B1: 5F12G1: murine monoclonal anti-BKB2R antibody (IgG2b,κ), VH comprising SEQ ID NO:1, VL comprising SEQ ID NO:2 (antibody, listed as Mus musculus, V domains shown)
VH: EVKLEESGGGLVQPGGSMKLSCVVSGFTFSDYWMSWVRHSPEMGLEWVAEIRLKSDNYATHYAESVKGRFTISRDDSKSRLYLQINSLRGEDTGIYYCTRDYYAMEYWGQGTSVTVSS
VL: DVVMTQTPLSLPVSLGDQASISCRSSQTIVHSNGKTYLEWYLQKPGQSPKLLIYKVSNRFSGVPDRFSGSGSGTEFTLKISRVETEDLGVYYCFQASHVPYTFGGGTKLEIK
Peak Blood Pressure Response (mm HG) (Wistar rats): 57 +/− 4 mm HG
Length (sec) of Blood Pressure Response (Wistar rats; until blood pressure returned to baseline): 168 ± 29 s
blood pressure at one hour after administration (Wistar rats; baseline 109±3 mm Hg): 95±3 mm Hg
blood pressure at three hours after administration (Wistar rats; baseline 109±3 mm Hg): 95±3 mm Hg
blood pressure at two hours after administration (Wistar rats; baseline 109±3 mm Hg): 94±3 mm Hg
EC 50 Values (ng/ml) Hep G2 (Hep G2): 21000 ng/mL
EC 50 Values (ng/ml) RS-4;11 (RS-4;11): 15000 ng/mL
EC 50 Values (ng/ml) PC-3 (PC-3): 4200 ng/mL
